Assay results published in the DeepSol protein solubility set.

Assay: soluble on expression in E. coli; label from the status in PepcDB or PDB records

Sequence	soluble on expression in E. coli
MVAAPPAVGAAMPSLDFDTSVFNKEKVSLAGHEEYIVRGGRNLFPLLPEAFKGIKQIGVIGWGSQGPAQAQNLRDSLAEAKSDIVVKIGLRKGSKSFDEARAAGFTEESGTLGDIWETVSGSDLVLLLISDAAQADNYEKIFSHMKPNSILGLSHGFLLGHLQSAGLDFPKNISVIAVCPKGMGPSVRRLYVQGKEINGAGINSSFAVHQDVDGRATDVALGWSVALGSPFTFATTLEQEYKSDIFGERGILLGAVHGIVEALFRRYTEQGMDEEMAYKNTVEGITGIISKTISKKGMLEVYNSLTEEGKKEFNKAYSASFYPCMDILYECYEDVASGSEIRSVVLAGRRFYEKEGLPAFPMGNIDQTRMWKVGEKVRSTRPENDLGPLHPFTAGVYVALMMAQIEVLRKKGHSYSEIINESVIESVDSLNPFMHARGVAFMVDNCSTTARLGSRKWAPRFDYILTQQAFVTVDKDAPINQDLISNFMSDPVHGAIEVCAELRPTVDISVPANADFVRPELRQSS	soluble
MVAERNKDGRVVFDRGLRAQMMAIDGTWRRPCLIEDVSELGAKLTVEGTVEGLNLKEFFLLLSSTGLAYRRCELSWINGDQIGVTFLRLDRKKKRAAQVENA	not soluble
MVAEVCSMPTASTVKKPFDLRSKMGKWCHHRFPCCRGSGKSNMGTSGDHDDSFMKMLRSKMGKCCRHCFPCCRGSGTSNVGTSGDHENSFMKMLRSKMGKWCCHCFPCCRGSSKSNVGAWGDYDHSAFMEPRYHVRREDLDKLHRAAWWGKVPRKDLIVMLRDTDMNKRDKEKRTALHLASANGNSEVVQLLLDRRCQLNVLDNKKRTALIKAVQCQEDECVLMLLEHGADRNIPDEYGNTALHYAIYNEDKLMAKALLLYGADIESKNKV	not soluble
MVCLESDTCQSSQLLNTSFKRGFFSNLYPMIKRTAVERCPLFSVETGFYLKAPGILFVIERKKKQMNHETIQKLQFTTILKEVQTRAIGEYSKERLAKMVPATRLETVQSRLTETTEARLIIDSGQHVPFMGLSQITRLLQQVKKGLILTPNELIEVADFLRSSQRIQKFFEKNQYQTPRLFSYSQHLADFRAIEEQIYTKIHNQKVATDASRQLRKIRRQINECQQEIETKVTKFLRNKNNQLYIQENMMVKKGEHYTVPIKASYKNKVSGTIIEQSNKGQTVFIEPVAISKLNEQLTLLKAEETAEEYQILAELTGLINEQERLVDQAVDTMTTLDIIFARGKYSREIGGITPKVNKEERLRIVQGKHPLLLEHAVPLTFSLGAEYRGLVITGANAGGKTVVLKTVGLLTVMTQFGLQIPAQAGTEIPVLDEIFVDIGDQQNLENALSTFSGHMKNIAEMLRNVKRHTLVLLDEIGSGTEPNEGAGLAIAIMETMYQKGALVVATTHYGEIKRFAQEHDDFVPAAMAFDRETLTPKYQLKIGEVGDSQALWIARKMKMEPQLIEKAAHYIQRKEYPTNRSLFKPLKAKETTFATFVEETHRYQKGDRVLLTETQQIGLVFTDEGEQEIQVFVNDKIENVPRRRLKLQAKAQDLYPQDYDLESLFTDFHERKKLKDIERGSKKAQKQLRKEAEKRAARRDK	not soluble
MVDKAGNPLTVDDISQCHLPGFPILFTQNELLEILAKEIFKQQFLWKSVQDKDIKECNKEERIIKQIPLMPRCPDVLKGLFHCIEIRDERSPKHAIAYKSCLGKLEEMVKDQWDDWNRNQS	not soluble
MVDKNSLRKLMLLKRAELNDLEKSHLDQKINQKLMAFLITRPTIKNLALYIPIKNEVAFLDNFLDFLKLNKITSCFPSIVDQFNMKFIDQNNNEINPNDIDCFFIPLLAFNKANHRIGFGKGYYDRYLSLTSKKQLKIGIAYDFQYAEFTNDPWDYQLDLIICNGMAGDPLEHHHHHH	soluble
MVEEICHICNDKSTGKHYGAISCDGCKGFFRRSIRKRYHYQCRFEQNCDVTKNKRNACRACRLQKCVKAGMKSNAIQNERDAIGKRKKTTGAEKEDLIDQLVAAETLCQQLRSSVIKNTSSLAPYDCGKVKWNYEDARAATLDDIGKSIHQQLVLFIEWAKSLPQFSFLAQADQAALLKGGAASIIVLGVAYRSICLTVENTICLANDTLLPKEHATQVGDINCVVGRIIDEIVNPMRRLNMDLIEYVALKAILFFNPVVREINDQSPVENARYAFLRSLQRRCTDKALENMEDESMDCRSGKLLLLLPSLQAIAQQLVEDVQLARLFGLVNVDSLMEELILNDMKPSDPQILQTSLASPVNSSVKAEVELEE	soluble
MVEISKRIISTFGKTNAHFKLITENDRVLVGLSGGKDSLLLATLLARLARHAPFKFEFKALTVDYGIGEDFSYLQNYCAENGIPHEVFKTNIMEVMQEKRRENSSYCSFCSRLRRGALYSKALEGGYNKLALGHHLDDAAESFFMNFSYNGAIRSMPPIYRAYNGLWVIRPLIWLRERQMVDFVLKNNLQTPLCNC	not soluble
MVEKHLLEFLEKLQFLISKNVKISHYGIENVKKICGVDIAYKGNLGFSVGVSMDINSGDYNYKSYVGEVNFPYIPGFLFMREAPLMIKAIEGLDCHLLLVDGHGIAHPRKSGIAAVIGVLLDFPTIGVAKSRLTGDLVNESEITYVYLNGEKVGVKFGRYFYSPGNKVDLQDCIELGKRGYPKVLKIADMLTKKIKKE	soluble
MVELTPAAIQELERLQTHGVRRGQAAILRIQVQPSECGDWRYDLALVAEPKPTDLLTQSQGWTIAIAAEAAELLRGLRVDYIEDLMGGAFRFHNPNASQTCGCGMAFRVSRS	soluble
MVETLPALEIGEDERLDLENLATGAFFPVKGFMTREEALSVAHEMRLPTGEVWTIPILLQFREKPRVGPGNTVALLHGGERVALLHVAEAYELDLEALARAVFGTDSETHPGVARLYGKGPYALAGRVEVLKPRPRTPLEKTPEEVRAFFRQRGWRKVVAFQTRNAPHRAHEYLIRLGLELADGVLVHPILGAKKPDDFPTEVIVEAYQALIRDFLPQERVAFFGLATPMRYAGPKEAVFHALVRKNFGATHFLVGRDHAGVGDFYDPYAAHRIFDRLPPLGIEIVKVGAVFHCPLCGGIASERTCPEGHREKRTAISMTKVRALLREGKAPPSELVRPELLPILRRGV	soluble
MVFDKLLEQAGINLEFEDKEIKDSDYLGDVSDLIKIAVIGVGGSGNNTISRLYDLGVQGADLIAMNTDAQHLHQIKAHKKLLLGKSITHGKGSGGDPRIGYRAAEASASEIADIVKDYDLIFLTAGMGNGTGTGATPVIARIIKETARNNGLPQEPLVISVVTFPFKMEGKVRIEKAKAGIEMLLEYSDTVIIIQNDKLIELVPKLPIQVAFRFADEIIARMVKGIVETIKLPSMVNIDYADIYSVMKGGGPALIGIGESDSNNRAVDAVMEALNNKMLDIEFGSGDKALVHFTVGPDVSLEEITKAMEIVYERLGEKSEIKWGAMIEEDMGKTVRAMVIMTGVRSPQILGNINVNALTYSSSSLVVPRDSKIMSESKVDEIFSSIDPRASKLRKGNNSSRINKIFKDLGFYEL	soluble
MVFDRQMKRGQRDWAVRQPDFKAAQYLKEEIGWRVADKVFDLTKFNPLVLDIGCGVGHIAPHLIKENVGKIIQVDMSGGMAQSSAKCEDPEVIVERRTVDEETLDGFHENQFDLLLTSMSAHWINHLPQWMRKCHDIVKPDCPFIGSMLAEDTLYELRCSLQLAELERIGGVSSHISPFVKTQDIGGLLSSAGFDMITLDSDEIQVGYPNMFALMYDLQLMGESHCTHRRNPTIRRDVLVAAEAIYQSMYSSDGKYPATFKIVSFIGWKPGPNMPKAAKRGSQTVSLKDIGKIVEDPEMMRKMSEKDGVDKKK	not soluble
MVFFTCNACGESVKKIQVEKHVSNCRNCECLSCIDCGKDFWGDDYKSHVKCISEGQKYGGKGYEAK	soluble
MVGGGGVKFIEMDIRDKEAYELAKEWFDEVVVSIKFNEEVDKEKLREARKEYGKVAILLSNPKPSLVRDTVQKFKSYLIYVESNDLRVIRYSIEKGVDAIISPWVNRKDPGIDHVLAKLMVKKNVALGFSLRPLLYSNPYERANLLRFMMKAWKLVEKYKVRRFLTSSAQEKWDVRYPRDLISLGVVIGMEIPQAKASISMYPEIILKRLKY	soluble
MVGGLTHVDEKGVKMVEIGYKDVVFRKAVAKGRIKLKPETVKLIKEGKIEKGNVLATAQIAGILAVKRTPELIPLCHPIPITGVDITFDFGEDYIEVTCEVRAYYKTGVEMEALTGVTVALLAIWDMVKAVEKDEKGQYPYTRIENVHVVEKVKTHNSQ	soluble
MVGGSLSPAFTIDEATSYINAVKEAFGADQPAKYREFLDIMLDLRANRVDLATVVPRMRELLKDHVNLLLRFNAFLPAEAKETFHDVRSYIYSLKESFRDEPAKYAQFLEILNDYSARRVDAPSAVARMTELMKDHRNLVLGFSVLLSTGDTKTTPLEAEPDNNKRIRVANFISKLKARFQGNDGHVYESFLEILTMYQQGNKSVNDLYQEVVALLQGHEDLVMEFSNVFKRTTGPSGSKSARDR	soluble
MVGLADVAVLYSGGKDSNYALYWAIKNRFSVKFLVTMVSENEESYMYHTINANLTDLQARALGIPLVKGFTQGEKEKEVEDLKRVLSGLKIQGIVAGALASKYQRKRIEKVAKELGLEVYTPAWGRDAKEYMRELLNLGFKIMVVGVSAYGLDESWLGRILDESALEELITLNEKYKVHVAGEGGEFETFVLDMPLFKYKIVVDKAKKVWEPCTSSGKLIIEEAHLESKLEHHHHHH	soluble
MVGSLLPSHATEFEKRLADACDFHQDVDGAVLGISRAKLITRPPRFLPWLIEEYGLGELTPYVPNLYDLIDQGLAWQRLRGSVAAIELGLKWLELSARFTPAWSGRAWWNSFQLDFDQLPEQSSLEAIEAIVDLSKSFRSDFRRSTYGYDVEATEGDMSHLDDSMLDFESGVRLTARDTLFSFGRTTQIKHTLTKEEGKLIGNWIDDVDEELSWNQIDYPWELANFPWCSVKKHERDILIAKWFQNRPLYLALRDLDNTLIGYRRCYAVQPVEQAVEGVYSHCGNRFNPSPTGTMLFLAARTDFEDVENKQAASVPLLVHGSLVEQTPLGKLWLGADELRGGVEILKTPINIPLRADVREQFKILLRF	not soluble
MVHIRLSFITFSLILFLVVDMVKIPKSHPRYWSLLYREKIIEGMEKGITAKAGLIAHGRGEAFDYLIGEKTIPPAETAMRAAIAKLLLAKHPVISVNGNVAALVPKETVELAKVLNAKLEINLFYRTEERVKKIAEVLYENGADEVLGINPTKRIPGLESERGKVDENGIWKADVILVPLEDGDRTEALCRMGKFVITVDLNPLSRSARMADITIVDNIVRAYPRMIELAKEMKSLPKEDLEKIVATYDNSKVLSEVLIHIRDRLTKLAEGGIWKKEKLEHHHHHH	not soluble
MVIDFNRLNPGSTPATTGRTGSTAAGRPDATGADKAGQAATSAPKSGESVQISETAQNMQKVTDQLQTLPVVDNDKVARIKQAIADGTYQVDSERVASKLLDFESQR	not soluble
MVIELKNEKVTVQFKEFGGALSSIKDQDGIEYLWQGNPAYWSSQAPVLFPICGSLRNDKGIYTSKKHSHRYGSIPRHGLVRKKNFRFEQLGKDSVVFTITPDKEMLMQYPYHFELKIIYTLKHTTIRTEYQVINKEKESIMPYFIGGHPGLNCPLFAGDRYEDYYLEFEKEETCTVPKSFPDTGLLDLQDRKIFLKGQKYLDLDYSLFTHDAITLDNLQSRSVSLRSKNHGGGLRLDFADFPYLILWSTANKSPFIALEPWSGLSTAVDESDYFEEKRNVSFVEPGQFDRNYFDITVLLEHHHHHH	soluble
